Test results published in article PMC9070667, “Molecular insights into RNA recognition and gene regulation by the TRIM-NHL protein Mei-P26”.

Columns and labels:
Mei-P26 NHL wt [1] = molecular target: T1, Mei-P26 NHL wt (Drosophila melanogaster (Oregon-R), UniProt M9PH32 908-1206); experiment: MST; MST: 20 mM Hepes/KOH pH 7.5, 100 mM NaCl, 5 mM MgCl2, 5 mM DTT, 0.0125% Tween 20, 25 C (Brat: 20 mM Tris 8.0, 150 mM NaCl, 1 mM MgCl2, 5 mM DTT, 0.0125% Tween 20). EMSA, 1:1 mix, 4 C: RNA in 10 mM Tris pH 7.4, 50 mM KCl, 1 mM EDTA, 1 mM DTT, 0.4 mg/ml yeast tRNA; protein in 20 mM Hepes pH 7.5, 5 mM DTT, 100 mM (wt) or 300 mM (mutants) NaCl, 5% glycerol; conditions: protein: recombinant, tags: GST removed by TEV
T1 sequence: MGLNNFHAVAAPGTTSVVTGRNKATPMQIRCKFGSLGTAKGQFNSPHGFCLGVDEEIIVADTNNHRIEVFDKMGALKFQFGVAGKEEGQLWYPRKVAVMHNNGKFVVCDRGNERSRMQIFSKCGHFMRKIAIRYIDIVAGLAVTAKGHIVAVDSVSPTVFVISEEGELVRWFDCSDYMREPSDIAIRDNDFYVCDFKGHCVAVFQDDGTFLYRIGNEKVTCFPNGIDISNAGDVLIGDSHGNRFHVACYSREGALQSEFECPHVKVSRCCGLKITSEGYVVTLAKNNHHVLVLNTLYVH

Mei-P26 NHL wt [2] = molecular target: T1, Mei-P26 NHL wt; experiment: EMSA; MST: 20 mM Hepes/KOH pH 7.5, 100 mM NaCl, 5 mM MgCl2, 5 mM DTT, 0.0125% Tween 20, 25 C (Brat: 20 mM Tris 8.0, 150 mM NaCl, 1 mM MgCl2, 5 mM DTT, 0.0125% Tween 20). EMSA, 1:1 mix, 4 C: RNA in 10 mM Tris pH 7.4, 50 mM KCl, 1 mM EDTA, 1 mM DTT, 0.4 mg/ml yeast tRNA; protein in 20 mM Hepes pH 7.5, 5 mM DTT, 100 mM (wt) or 300 mM (mutants) NaCl, 5% glycerol; conditions: protein: recombinant, tags: GST removed by TEV
Mei-P26 NHL RKR [3] = molecular target: T2, Mei-P26 NHL RKR (Drosophila melanogaster (Oregon-R), UniProt M9PH32 908-1206, R1150A;K1172A;R1175A); experiment: as above; conditions: protein: recombinant; tags: GST removed by TEV; label: 32P
T2 sequence: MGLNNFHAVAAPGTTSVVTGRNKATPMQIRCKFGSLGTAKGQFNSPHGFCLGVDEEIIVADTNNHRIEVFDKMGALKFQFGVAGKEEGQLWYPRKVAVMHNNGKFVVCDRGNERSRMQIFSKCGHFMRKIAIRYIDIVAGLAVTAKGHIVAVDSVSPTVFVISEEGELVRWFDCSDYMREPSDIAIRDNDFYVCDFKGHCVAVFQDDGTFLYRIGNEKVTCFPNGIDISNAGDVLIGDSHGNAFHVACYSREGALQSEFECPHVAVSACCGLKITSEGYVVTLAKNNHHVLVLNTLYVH

Mei-P26 NHL RKR [4] = molecular target: T2, Mei-P26 NHL RKR; experiment: MST; MST: 20 mM Hepes/KOH pH 7.5, 100 mM NaCl, 5 mM MgCl2, 5 mM DTT, 0.0125% Tween 20, 25 C (Brat: 20 mM Tris 8.0, 150 mM NaCl, 1 mM MgCl2, 5 mM DTT, 0.0125% Tween 20). EMSA, 1:1 mix, 4 C: RNA in 10 mM Tris pH 7.4, 50 mM KCl, 1 mM EDTA, 1 mM DTT, 0.4 mg/ml yeast tRNA; protein in 20 mM Hepes pH 7.5, 5 mM DTT, 100 mM (wt) or 300 mM (mutants) NaCl, 5% glycerol; conditions: protein: recombinant; tags: GST removed by TEV; label: Cy5
Mei-P26 NHL R1175A = molecular target: T3, Mei-P26 NHL R1175A (Drosophila melanogaster (Oregon-R), UniProt M9PH32 908-1206, R1175A); experiment: MST; minor influence of the mutation; MST: 20 mM Hepes/KOH pH 7.5, 100 mM NaCl, 5 mM MgCl2, 5 mM DTT, 0.0125% Tween 20, 25 C (Brat: 20 mM Tris 8.0, 150 mM NaCl, 1 mM MgCl2, 5 mM DTT, 0.0125% Tween 20). EMSA, 1:1 mix, 4 C: RNA in 10 mM Tris pH 7.4, 50 mM KCl, 1 mM EDTA, 1 mM DTT, 0.4 mg/ml yeast tRNA; protein in 20 mM Hepes pH 7.5, 5 mM DTT, 100 mM (wt) or 300 mM (mutants) NaCl, 5% glycerol; conditions: protein: recombinant; tags: GST removed by TEV; label: Cy5 (MST); 32P (EMSA)
T3 sequence: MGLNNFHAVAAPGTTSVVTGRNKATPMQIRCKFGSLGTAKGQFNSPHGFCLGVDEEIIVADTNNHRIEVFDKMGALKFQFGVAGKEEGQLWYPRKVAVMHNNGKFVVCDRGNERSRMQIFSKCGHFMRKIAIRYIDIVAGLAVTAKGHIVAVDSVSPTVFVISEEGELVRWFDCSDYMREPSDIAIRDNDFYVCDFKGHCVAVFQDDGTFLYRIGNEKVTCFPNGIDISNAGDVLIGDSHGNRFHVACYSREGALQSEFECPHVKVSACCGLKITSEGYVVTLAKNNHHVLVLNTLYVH

Brat NHL = molecular target: T4, Brat NHL (Drosophila melanogaster, UniProt Q8MQJ9 756-1037); experiment: MST; MST: 20 mM Hepes/KOH pH 7.5, 100 mM NaCl, 5 mM MgCl2, 5 mM DTT, 0.0125% Tween 20, 25 C (Brat: 20 mM Tris 8.0, 150 mM NaCl, 1 mM MgCl2, 5 mM DTT, 0.0125% Tween 20). EMSA, 1:1 mix, 4 C: RNA in 10 mM Tris pH 7.4, 50 mM KCl, 1 mM EDTA, 1 mM DTT, 0.4 mg/ml yeast tRNA; protein in 20 mM Hepes pH 7.5, 5 mM DTT, 100 mM (wt) or 300 mM (mutants) NaCl, 5% glycerol; conditions: protein: recombinant; tags: His6-ubiquitin fusion (pHUE); label: Cy5
T4 sequence: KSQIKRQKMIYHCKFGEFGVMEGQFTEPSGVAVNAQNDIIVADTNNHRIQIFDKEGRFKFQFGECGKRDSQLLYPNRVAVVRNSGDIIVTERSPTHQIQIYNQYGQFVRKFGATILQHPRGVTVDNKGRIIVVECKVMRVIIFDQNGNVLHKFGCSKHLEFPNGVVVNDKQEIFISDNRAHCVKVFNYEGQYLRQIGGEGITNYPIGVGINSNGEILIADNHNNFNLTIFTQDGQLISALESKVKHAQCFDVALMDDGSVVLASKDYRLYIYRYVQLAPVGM

AUUUACA (ssRNA) [SEQ2]
binding result (Mei-P26 NHL wt [1]; label: Cy5): binds

AUCCUUUUUAAAACUCC (ssRNA) [LanA]
binding result (Mei-P26 NHL wt [2]; label: 32P): binds | binding result (Mei-P26 NHL RKR [3]): no binding

TTTTACA (ssDNA) [DNA]
binding result (Mei-P26 NHL wt [1]; label: Cy5 (MST), 32P (EMSA)): no binding

UUUUUUU (ssRNA) [U7 (SEQ1)]
Kd (Mei-P26 NHL wt [1]; label: Cy5): 1800 ± 200 nM

GGAGUCCAACUCC (structured_RNA) [dsRNA hairpin (Lin41 SEQ)]
binding result (Mei-P26 NHL wt [1]; label: Cy5 (MST), 32P (EMSA), hairpin): no binding

UUUUACA (ssRNA) [SEQ3]
Kd (Mei-P26 NHL wt [1]; label: Cy5): 1700 nM | binding result (Mei-P26 NHL RKR [4]): no binding

GGUCUUUUUACAAAAG (ssRNA) [Mlc-c]
binding result (Mei-P26 NHL wt [2]; label: 32P): binds | binding result (Mei-P26 NHL RKR [3]): no binding

CCCUUUUUUUAUACACAA (ssRNA) [lost]
binding result (Mei-P26 NHL wt [2]; label: 32P): binds | binding result (Mei-P26 NHL RKR [3]): no binding

UUUUUUUUU (ssRNA) [U9]
binding result (Mei-P26 NHL R1175A): binds | binding result (Mei-P26 NHL wt [2]; label: Cy5 (MST), 32P (EMSA)): binds

UUUUACAA (ssRNA) [SEQ44U]
binding result (Mei-P26 NHL wt [1]; label: Cy5): binds

UUGUUAA (ssRNA) [BRAT1]
binding result (Brat NHL): binds

UUUUUAA (ssRNA) [BRATmut]
binding result (Mei-P26 NHL wt [1]; label: Cy5): binds

UUUUUAC (ssRNA) [SEQ5]
binding result (Mei-P26 NHL wt [1]; label: Cy5): binds

GCCAUUUUUUAUCUGCCA (ssRNA) [Col4a1]
binding result (Mei-P26 NHL wt [2]; label: 32P): binds | binding result (Mei-P26 NHL RKR [3]): no binding

AGUAAUUUUUUCUAUUAAAGU (ssRNA) [Hrb27C]
binding result (Mei-P26 NHL wt [2]; label: 32P): binds | binding result (Mei-P26 NHL RKR [3]): no binding
